Experimental data taken from patent US5308529A, “System for enhancing release of acids from anhydride precursors using esterase catalysts” (Lever Brothers Company, Division of Conopco, Inc., priority 1992, dated 1994).
One block for each molecule: values may come before it.

Assays:
Assay type in all cases: biochemical
[1] = Enzymatic hydrolysis of benzoic anhydride at pH 5.00 and 10.0 (HPLC); details: 0.5 mM benzoic anhydride, 50% acetonitrile/water, room temperature, background hydrolysis subtracted
Protocol: A 50% acetronitrile/water system was used in the presence of 120 ppm water hardness solution (2:1 calcium:magnesium), 0.5 mM benzoic anhydride, and 25 ppm acenaphthylene internal standard. The following buffer systems were utilized:
For pH 5.00: 10 mM sodium citrate, adjusted to pH 5.00 with 0.1 citric acid.
For pH 10.0: 10 mM triethanolamine, adjusted to pH 10.0 with 0.1M hydrochloric acid.
All reactions were run on a 10 mL scale at room temperature for a total of 5.00 min. The benzoic anhydride and internal standard were added from a stock solution which was 1.0M benzoic anhydride and […] acenaphthylene in 100% acetonitrile. A total of 5.0 μL of this stock was used (yielding a 1:2000 dilution) to make each reaction 0.5 mM benzoic anhydride and 25 ppm acenaphthylene. Benzoic acid produced was measured by HPLC (high pressure liquid chromatography) using the acenaphthylene internal standard as a reference.

[2] = Enzymatic hydrolysis of phthalic anhydride; details: 5.0 mM phthalic anhydride; 60.77 EU/g enzyme; room temperature, 50% acetonitrile/water
Protocol: The reaction was carried out at room temperature in a mixed solvent system (50% acetonitrile/water). The buffer and water hardness concentration were identical to that used for the benzoic anhydride systems.

[3] = Rate of benzoic acid formation from benzoic anhydride by enzymes with esterase activity (HPLC); details: 50 μM benzoic anhydride, -10 deg. C., pH 7, 5 mins, 60% glycerol/water
Protocol: Standard reaction conditions for the rate determinations in Table 1 are as follows: 60% glycerol/water (w/w), 120 ppm hardness (2:1 Ca:Mg), 10 mM Triethanolamine adjusted to pH 7 with HCl, and […] benzoic anhydride. All incubations were at -10 deg. centigrade for 5 mins. Benzoic acid produced was measured by HPLC via an internal standard (acenaphthylene).
Various enzymes with esterase activity (lipases, esterases, proteases) were tested against benzoic anhydride to determine the rate of formation of acid. As a control, the effect on benzoic anhydride when no esterase was present (i.e., heat killed lipolase) was also measured.

B1: Genex 8397: protease; mutant of subtilisin BPN' with MET50→PHE, ASN76→ASP, GLY169→ALA, GLN206→CYS, ASN218→SER (protein, UniProt P00782 108-382, looked up, variant M50F N76D G169A Q206C N218S)
Subtilisin BPN': AQSVPYGVSQIKAPALHSQGYTGSNVKVAVIDSGIDSSHPDLKVAGGASFVPSETNPFQDNNSHGTHVAGTVAALDNSIGVLGVAPSASLYAVKVLGADGSGQYSWIINGIEWAIANNMDVINMSLGGPSGSAALKAAVDKAVASGVVVVAAAGNEGTSGSSSTVGYPAKYPSVIAVGAVDSSNQRASFSSVGPELDVMAPGVSICSTLPGNKYGAYSGTSMASPHVAGAAALILSKHPNWTNTQVRSSLENTTTKLGDSFYYGKGLINVQAAAQ
Reaction over 5.00 min. ([1]; pH 5.00, 60.0 EU/g. enzyme): 22.34% | Reaction over 5.00 min. ([1]; pH 10.0, 3.04 EU/g. enzyme): 63.23% | Rate (μmol BA/EU/min) [2]: 3.03 × 10^-3 μmol BA/EU/min

Rate (uMol Benzoic Acid prod./enzyme unit/min) ([3]; enzyme unit = esterase unit): 6.2 E-3 uMol Benzoic Acid prod./enzyme
B2: Papain: enzyme listed under Proteases in Table 1 (protein, UniProt P00784 134-345, looked up)
Papain: IPEYVDWRQKGAVTPVKNQGSCGSCWAFSAVVTIEGIIKIRTGNLNEYSEQELLDCDRRSYGCNGGYPWSALQLVAQYGIHYRNTYPYEGVQRYCRSREKGPYAAKTDGVRQVQPYNEGALLYSIANQPVSVVLEAAGKDFQLYRGGIFVGPCGNKVDHAVAAVGYGPNYILIKNSWGTGWGENGYIRIKRGTGNSYGVCGLYTSSFYPVKN

B3: Lipolase: lipase from Humicola lanuginosa gene expressed in Aspergillus oryzae, commercially available from NOVO Industri A/S (protein, UniProt O59952 23-291, looked up)
Lipase: EVSQDLFNQFNLFAQYSAAAYCGKNNDAPAGTNITCTGNACPEVEKADATFLYSFEDSGVGDVTGFLALDNTNKLIVLSFRGSRSIENWIGNLNFDLKEINDICSGCRGHDGFTSSWRSVADTLRQKVEDAVREHPDYRVVFTGHSLGGALATVAGADLRGNGYDIDVFSYGAPRVGNRAFAEFLTVQTGGTLYRITHTNDIVPRLPPREFGYSHSSPEYWIKSGTLVPVTRNDIVKIEGIDATGGNNQPNIPDIPAHLWYFGLIGTCL
Reaction over 5.00 min. ([1]; pH 5.00, 50.0 EU/g. enzyme): 33.30% | Reaction over 5.00 min. ([1]; pH 10.0, 15.0 EU/g. enzyme): 86.06%

Rate (uMol Benzoic Acid prod./enzyme unit/min) ([3]; control, no unit assay printed): 0 uMol Benzoic Acid prod./enzyme
B4: Heat Killed Lipolase: control: heat killed lipolase, i.e. no esterase present (protein, UniProt O59952 23-291, looked up)
Lipase: B3 Lipase
modifications: heat-inactivated
notes: control: heat killed lipolase, i.e. no esterase present

Rate (uMol Benzoic Acid prod./enzyme unit/min) ([3]; enzyme unit = lipase unit): 1.08 E-1 uMol Benzoic Acid prod./enzyme
B5: Humicola languinosa: lipase ex Humicola lanuginosa (listed under Lipases) (protein, UniProt O59952 23-291, looked up)
Lipase: B3 Lipase
